Data published in the DeepSol protein solubility set.

test: soluble on expression in E. coli; label from the status in PepcDB or PDB records

Sequence | soluble on expression in E. coli
MRVLILGGTGNAAELAARVATIQGVDAITSLAGRTREPSVPLGDLRVGGFGGVAGLASYLQAMQIDLLIDATHPFASQISFNAADAAKEVGVPRLMLIRPPWEKGSGDRWMEVDNVEAAAASLQNQAHRVFLTVGRQELAAFAHLEEIWFLMRMIDPPVDDALVPPGMVLCDRGPFNLNNERQILIDRKIDTIVSKNSGGDATKPKIIAARELGVKVVMVNRPAIPPGEQVSDVEGALVWLLEKLHN | not soluble
MGSDKIHHHHHHMIILVGGEKGGSGKSCLAQNIAVFLTVECGASVIMVDCDPQRTTSDWIQARNNNGTLASINCVQLYGKIRNDLLSLEQHYDYVIVDCGGQDNLALRATMSVASHVLMPLRPKRRDLKTVSHMDDIVATCMMINPKMRASFVITQCPSLPNQANRIFEAKEVCKTYDINVLDAITYSRNIYDDSEESGLSVMETQPKGKAAEEIRSIACEMLQASSATEIRNRLAEKQMDKLRGNYGSGRSQEKLYAV | not soluble
MLSVENLKVVYRGVILALDGVSLEVGEGEAVALLGPNGAGKSSLVRTIAGLLPKFEGRVLDGKVRLFGREATHLDPVGISRLGLTAILEGRPLFRYLTPVENLMAAGHRLPPKALKEGMEEVFARFPRLYERRHEQAGYLSGGEQQMLLLGMALLTRPRLLVVDEPSLGLAPKLVGEVMQTLDALRREKGLSLLLVEQNARAALGVVDRVYVLERGRVVFEGSAKEAMEDQDVMEFYLGKEEVGFRQARRYRRRKRWV | soluble
MNPKHSCTNFGADIPVNSQLIVTTSELRQKLKEKNKFILVDNRTWDEHIGKVSGYTYYDKKGRIPGALYGHSGSDSVSLEEYRNIDNTMRNKYEILEMWDKENIDVNKQLIFMCGSGWRAAEVLTYANVIGVENTSLYSDGWMGWSLDNSNLIEVGEHKLEHHHHHH | not soluble
MGSDKIHHHHHHMEKFGLKALVPLLKLEDKELSSTYDHSMTLGADLSSMLYSLGIPRDSQDHRVLDTFQSPWAETSRSEVEPRFFTPESFTNIPGVLQSTVTPPCFNSIQNDQQRVALFQDETLFFLFYKHPGTVIQELTYLELRKRNWRYHKTLKAWLTKDPMMEPIVSADGLSERGSYVFFDPQRWEKCQRDFLLFYNAIM | not soluble
MICTLLVPVLGSFELVGQSIKDALAEYTLTDIMNNNQFAGIEFGEAEDGFPAFRFLQTADVKSPYRMLLPEKLYEFAILITFRQSSLKGGYLFSVVNPLDTVVQLGVHLSPVVKNSYNVSLVYTQADQNIGRKLASFGVAHVPDKWNSIALQVLSDKVSFYYDCELRNTTLVTREPIELVFDSASTLYIGQAGSIIGGKFEVSSGGGQFDYAFDLQSIVGELEHHHHHH | not soluble
EVQLLESGGGLVQPGGSLRLSCAASGFTFSRYVMWWVRQAPGKGLEWVSYIWPSGGNTYYADSVKGRFTISRDNSKNTLYLQMNSLRAEDTAVYYCASSYDFWSNAFDIWGQGTMVTVSSASTKGPSVFPLAPCSRSTSESTAALGCLVKDYFPEPVTVSWNSGALTSGVHTFPAVLQSSGLYSLSSVVTVPSSSLGTKTYTCNVDHKPSNTKVDKRVES | soluble
MKILVAVKQTAALEEDFEIREDGMDVDEDFMMYDLNEWDDFSLEEAMKIKESSDTDVEVVVVSVGPDRVDESLRKCLAKGADRAVRVWDDAAEGSDAIVVGRILTEVIKKEAPDMVFAGVQSSDQAYASTGISVASYLNWPHAAVVADLQYKPGDNKAVIRRELEGGMLQEVEINCPAVLTIQLGINKPRYASLRGIKQAATKPIEEVSLADIGLSANDVGAAQSMSRVRRMYIPEKGRATMIEGTISEQAAKIIQIINEFKGA | soluble
MSLDAKLRYKAKKIKIVFFDIDDTLRNSKTGFIPTTIPTVFKQLREKGILTGIASGRGIFGVVPEIRDLKPDFFVTLNGAYIEDKKGQVIYQHQIEKSDVEEYISWAKQEGIEYGLVGSHDAKLSTRTDMMSEAINPIYPDLDVDPGFHEKEDIYQMWTFEDKGDDLHLPDSLSDKLRMVRWHQHSSDIVPISGSKATGVEKVVEHLGLKPEKVMVFGDGLNDLELFDYAGISVAMGISHDKIKEKADYITKTLEEDGIFDALEVFGMVEKELHFPQVDIETVEGPLATIKTNHGDLRIKLFPEHAPKTVANFVSLSKDGYYDGVIFHRIIKDFMIQGGDPTGTGMGGESIYGESFEDEFSEELYNIRGALSMANAGPNTNGSQFFIVQNQHLPYSKKEITRGGWPEPIAEIYANQGGTPHLDRRHTVFGQLADEASYAVLDVIAAVETGAMDKPVEDVVIETIEIEDEGHHHHHH | soluble
MSLINDLRTVPAALDRLVRQLPDHTALIAEDRRFTSTELRDAVYGAAAALIALGVEPADRVAIWSPNTWHWVVACLAIHHAGAAVVPLNTRYTATEATDILDRAGAPVLFAAGLFLGADRAAGLDRAALPALRHVVRVPVEADDGTWDEFIATGAGALDAVAARAAAVAPQDVSDILFTSGTTGRSKGVLCAHRQSLSASASWAANGKITSDDRYLCINPFFHNFGYKAGILACLQTGATLIPHVTFDPLHALRAIERHRITVLPGPPTIYQSLLDHPARKDFDLSSLRFAVTGAATVPVVLVERMQSELDIDIVLTAYGLTEANGMGTMCRPEDDAVTVATTCGRPFADFELRIADDGEVLLRGPNVMVGYLDDTEATAAAIDADGWLHTGDIGAVDQAGNLRITDRLKDMYICGGFNVYPAEVEQVLARMDGVADAAVIGVPDQRLGEVGRAFVVARPGTGLDEASVIAYTREHLANFKTPRSVRFVDVLPRNAAGKVSKPQLRELGEGHHHHHH | not soluble
EVIAAYIEGIKKAAENGLNVSQIHSVASFFVSRLDTEVDKRLEQIGSDEALSLRGKAGVANAQRAYAVFLEAFQAADLPVGAHVQRPLWASTGVKNPDYSPTFYVSELAGPDTVNTMPESTIDAVLAADDIHGDTLSSSSDSANEIFTRISQTGIDFEDVFAVLEQEGVDKFVAAWSDLLDSMESRLK | not soluble
MGSDKIHHHHHHMWHLFLECAFKIFLFEHSFKYFLNNFSKLGRLIIPSLKKTQIMRNAEFDRKAVLCAAMSVFTAKGYAKTSMQDLTKATGLHPGSIYCAFENKKGLLIAAIGQYQDERHQQFVRLFDNDAPCLSNLSNYLTEIVDECLSQDMSKACLLTKTLNEVGSQDEEIKTLITANLTAWQAALTAVFSLAQKNNEIDSQANSQELAQYLMMGIYGLRTFAHTHKDGQQLAQLAKKLLADVSR | not soluble
MIERGKFRSLTLINWNGFFARTFDLDELVTTLSGGNGAGKSTTMAAFVTALIPDLTLLHFRNTTEAGATSGSRDKGLHGKLKAGVCYSMLDTINSRHQRVVVGVRLQQVAGRDRKVDIKPFAIQGLPMSVQPTQLVTETLNERQARVLPLNELKDKLEAMEGVQFKQFNSITDYHSLMFDLGIIARRLRSASDRSKFYRLIEASLYGGISSAITRSLRDYLLPENSG | soluble
MGSFQAVAPTRLYRMIADQIAGRIRAGDFPAGGRLPAERELAEQLQVSRASVREALIALEIEGYVEVRVGTGVFVAAPRADGDYGVAPAPQPGHTDIGPFDLLDTRLLLEPECASLAAQKASPAQIAAISSAHAAMSLSDSPGAHDQAFHGAIAAACGNAALAAAISHIWHLSATSPVFSRLEQHFVTTKVWEAAEREHERILAAIVDRDPIRARHAMHDHLVGILARLREDFGSGAIR | not soluble
MSLKAAVLHGTNDMRFEDIEIKPCESDEVKIKVMAAGICGSDPPRVLKHWKYPVPAIPGHEFSGVIAEVGKDVKNVKVGDRVVAIPFIPCNECEYCKRGLFSLCDDHGMLGAKSFGAFAEYVNIKATNVLPIGDMDFEDAAMIEPLAVAMHGVLNIGVQVGDTVAVMGSGTMGQLVIQGLKIAGAGTIIAVDISDNKLRESKELGADIIINAKDINPVEKIKELTGGKGVDIALECAGSKITQEQCLLITKKKSKIGFLGIAYSDITLSEEAFENIFRKELELKGFWNSYSAPFPGQEWTKGINLVNEGKIKLKEMVSHRFSLEDTYKAFEMIRDRKEEFNKILILPQGVEGHHHHHH | soluble
MRDVPNIGFISLGCPKNLVDSERILTELRSDGYNIIPSYENADLVIVNTCGFIDSAVQESLEAVGEALKENGKVIVTGCLGAKENQIREVHPKVLEITGPHSYEAVMQHVHKYVPRPERNMYTSLVPAQGVKLTPKHYAYLKISEGCDHRCTFCIIPSMRGDLDSRPIVQILDEAKRLADSGVKELLIVSQDTSAYALDQTKENQNKTVFWNGVPIKNNLISLCEQLATLGIWIRLHYVYPYPHVDNLIPLMAEGKILPYLDIPLQHASPKILKAMKRPGSIDRTLERIKQWREICPELTLRSTFIVGFPGETEEDFQMLLDFLTEAQLDRVGCFKFSPVDGAVATEMAEQVPEEVKEERFHRFMQVQQRISVARLQQKIGKTLAIIIDEIDEYGIIGRSMADAPEIDGVVYVDNISQQAVTVGQIILVTITNADEYDLWGTYLEHHHHHH | soluble
MGSDKIHHHHHHMAVRMLDIARRFNMLSERIRRESVELGIPAIDPEDGLILSSAAFYVGGGTGSYVDAGAGIGYSTIWIAYGAYHRCTDITCKIVAIEYDVELASILSRNLREVEAMFRGRIEFEVVSGDALDYFSRLEEKGREVFDMAFVDIEKGDYPEALERLENLLTAGGVAAFYNAFQPPPPPLFFDMVSKRPWKPVVLPTPAGLLLAVKTAG | not soluble
MGSDKIHHHHHHMFSDFKKDFCLANPGYLLSHSVGRPLKSTEQVFKEAFFAPWQDSGREPWGQWLSVIDDFTFALSKLFNGHQKDFCPQVNLSSALAKILMSLARLNREHAVVLMSEIDFPSMGFAIKKALPASCEVRFIPKTLDITDANVWDAHMGSDIDLVFVSHAYSNTGQQAPLANILAMARQYGCLSVVDVAQSAGIIPLNLAQLQPDFLIGSSVKWLCSGPGAAYLWVNPSIIDSCQPKDVGWFSHENPFEFNIHDFRYHNSALRFWGGTPSIAPYAIAAHSIHYFADIGVEQLRKGNQLLIDIVAEALDQEFVSPREIEKRSGTLVLQFGEQQGQIMAALAKANISVDARSMGIRISPHIYNDKADIQLLLSVIKAHR | not soluble
MAISSRNTLLAALAFIAFQAQAVNVTVAYQTSAEPAKVAQADNTFAKESGATVDWRKFDSGASIVRALASGDVQIGNLGSSPLAVAASQQVPIEVFLLASKLGNSEALVVKKTISKPEDLIGKRIAVPFISTTHYSLLAALKHWGIKPGQVEIVNLQPPAIIAAWQRGDIDGAYVWAPAVNALEKDGKVLTDSEQVGQWGAPTLDVWVVRKDFAEKHPEVVKAFAKSAIDAQQPYIANPDVWLKQPENISKLARLSGVPEGDVPGLVKGNTYLTPQQQTAELTGPVNKAIIDTAQFLKEQGKVPAVANDYSQYVTSRFVQ | soluble
TYDSLKESTARDTGHLTLTTPGYFAKEEEMPLSNGLSHADEITKQLIGLSEVRGVQPRVEFSGLISNGSKSSIFIGIGVNEREFDMKGPFLDVRDGQTLSNIHASRYDASEPEVMLGVDLASNLSVNVGDWITLLATTTDGALNAYDFKVRGIYSTGVPELDKRQLYVHINSAQSLLGSDKVSALSVFLFDTCLTNKVEQQVATILNKQKPSFGDQEVEITPWQERAFFYLKVKDLYDR | not soluble
MDKELIKKNIKLMDATIEKMIHVMSSIHKLQLSVKELEDSNELTVSYVKRECTKLEERVKELRPSISRCVFMYREYVEEFETKLRDRIVTEKFFRIKRFYGKEVLAFKEFQEKYQNYIPKDIIDIKKQVRQKLEEVGYEIDGAFEGDFTSWVGVYARPKDKPTYLDPANAEEVVLQEKYSVNGFKQDFSEWFEFEIKDNVVYGILEHHHHHH | soluble
